Laboratory results as given in publication PMC7804152, “Structural basis for the multi-activity factor Rad5 in replication stress tolerance”.

Legend:
KlHIRAN = biological target: T1, KlHIRAN (Kluyveromyces lactis, UniProt Q6CJM4 174-341); assay: EMSA; no preference for free 3'-OH; FP: 20 mM Tris pH 7.5, 50 mM (dsDNA, KlHIRAN) or 70 mM (ssDNA) NaCl, 2 mM MgCl2, 1 nM DNA, room temp; EMSA: 20 mM Tris pH 7.5, 100 mM KCl, 0.5 mM DTT, 3% glycerol, 2 mM MgCl2, 250 ug/mL BSA, 4 C; pull-down: 20 mM Tris pH 7.5, 50 mM NaCl, 4 C; conditions: protein: recombinant; tags: intein-CBD cleaved off; label: 3'-FAM
T1 sequence: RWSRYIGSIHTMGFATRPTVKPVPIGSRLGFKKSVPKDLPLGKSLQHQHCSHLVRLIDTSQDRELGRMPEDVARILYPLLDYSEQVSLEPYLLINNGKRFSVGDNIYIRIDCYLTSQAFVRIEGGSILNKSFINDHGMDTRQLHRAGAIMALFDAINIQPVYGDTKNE

ScHIRAN = biological target: T2, ScHIRAN (Saccharomyces cerevisiae, UniProt P32849 171-375); assay: as above; conditions: protein: recombinant; tags: intein-CBD cleaved off; label: 3'-FAM
T2 sequence: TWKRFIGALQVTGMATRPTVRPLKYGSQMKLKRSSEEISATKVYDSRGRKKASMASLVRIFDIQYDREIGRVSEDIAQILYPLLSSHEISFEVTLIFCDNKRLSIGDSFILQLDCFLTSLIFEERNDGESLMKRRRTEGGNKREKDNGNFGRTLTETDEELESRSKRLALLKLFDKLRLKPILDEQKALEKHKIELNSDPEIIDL

KlRad5 [1] = biological target: T3, KlRad5 (Kluyveromyces lactis, UniProt Q6CJM4 163-1114); assay: pull-down; similar to 5'-biotin at all salt concentrations; FP: 20 mM Tris pH 7.5, 50 mM (dsDNA, KlHIRAN) or 70 mM (ssDNA) NaCl, 2 mM MgCl2, 1 nM DNA, room temp; EMSA: 20 mM Tris pH 7.5, 100 mM KCl, 0.5 mM DTT, 3% glycerol, 2 mM MgCl2, 250 ug/mL BSA, 4 C; pull-down: 20 mM Tris pH 7.5, 50 mM NaCl, 4 C; conditions: protein: recombinant; tags: none; label: 3'-biotin
T3 sequence: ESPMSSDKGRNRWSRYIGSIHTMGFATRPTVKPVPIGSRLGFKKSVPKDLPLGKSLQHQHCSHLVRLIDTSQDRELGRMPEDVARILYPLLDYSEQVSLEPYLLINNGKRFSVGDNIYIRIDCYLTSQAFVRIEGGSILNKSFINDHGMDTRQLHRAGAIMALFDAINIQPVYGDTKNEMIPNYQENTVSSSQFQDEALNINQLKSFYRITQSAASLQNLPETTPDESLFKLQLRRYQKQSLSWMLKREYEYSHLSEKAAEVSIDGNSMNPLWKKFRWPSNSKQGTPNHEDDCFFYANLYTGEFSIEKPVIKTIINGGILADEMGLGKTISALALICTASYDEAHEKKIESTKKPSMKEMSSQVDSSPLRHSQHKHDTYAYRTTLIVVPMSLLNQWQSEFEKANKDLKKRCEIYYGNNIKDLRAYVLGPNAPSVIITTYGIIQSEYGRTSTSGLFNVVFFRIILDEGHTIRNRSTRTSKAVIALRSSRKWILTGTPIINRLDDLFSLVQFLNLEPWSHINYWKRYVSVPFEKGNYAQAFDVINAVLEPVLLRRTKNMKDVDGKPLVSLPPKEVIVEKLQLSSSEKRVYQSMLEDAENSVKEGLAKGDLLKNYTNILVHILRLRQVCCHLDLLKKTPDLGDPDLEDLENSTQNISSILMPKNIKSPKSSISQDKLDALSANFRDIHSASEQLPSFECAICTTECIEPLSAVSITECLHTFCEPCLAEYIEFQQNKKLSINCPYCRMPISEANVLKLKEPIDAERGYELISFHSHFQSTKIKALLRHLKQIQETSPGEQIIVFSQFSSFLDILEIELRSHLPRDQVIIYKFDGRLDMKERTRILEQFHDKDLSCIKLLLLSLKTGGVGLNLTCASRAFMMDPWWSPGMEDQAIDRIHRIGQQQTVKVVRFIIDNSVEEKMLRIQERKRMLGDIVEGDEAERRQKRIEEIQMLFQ

HLTF [2] = biological target: T4, HLTF (Homo sapiens, UniProt Q14527 25-1009); assay: pull-down; lower salt; FP: 20 mM Tris pH 7.5, 50 mM (dsDNA, KlHIRAN) or 70 mM (ssDNA) NaCl, 2 mM MgCl2, 1 nM DNA, room temp; EMSA: 20 mM Tris pH 7.5, 100 mM KCl, 0.5 mM DTT, 3% glycerol, 2 mM MgCl2, 250 ug/mL BSA, 4 C; pull-down: 20 mM Tris pH 7.5, 50 mM NaCl, 4 C; conditions: protein: recombinant; tags: His (pET28a); label: 3'-biotin
T4 sequence: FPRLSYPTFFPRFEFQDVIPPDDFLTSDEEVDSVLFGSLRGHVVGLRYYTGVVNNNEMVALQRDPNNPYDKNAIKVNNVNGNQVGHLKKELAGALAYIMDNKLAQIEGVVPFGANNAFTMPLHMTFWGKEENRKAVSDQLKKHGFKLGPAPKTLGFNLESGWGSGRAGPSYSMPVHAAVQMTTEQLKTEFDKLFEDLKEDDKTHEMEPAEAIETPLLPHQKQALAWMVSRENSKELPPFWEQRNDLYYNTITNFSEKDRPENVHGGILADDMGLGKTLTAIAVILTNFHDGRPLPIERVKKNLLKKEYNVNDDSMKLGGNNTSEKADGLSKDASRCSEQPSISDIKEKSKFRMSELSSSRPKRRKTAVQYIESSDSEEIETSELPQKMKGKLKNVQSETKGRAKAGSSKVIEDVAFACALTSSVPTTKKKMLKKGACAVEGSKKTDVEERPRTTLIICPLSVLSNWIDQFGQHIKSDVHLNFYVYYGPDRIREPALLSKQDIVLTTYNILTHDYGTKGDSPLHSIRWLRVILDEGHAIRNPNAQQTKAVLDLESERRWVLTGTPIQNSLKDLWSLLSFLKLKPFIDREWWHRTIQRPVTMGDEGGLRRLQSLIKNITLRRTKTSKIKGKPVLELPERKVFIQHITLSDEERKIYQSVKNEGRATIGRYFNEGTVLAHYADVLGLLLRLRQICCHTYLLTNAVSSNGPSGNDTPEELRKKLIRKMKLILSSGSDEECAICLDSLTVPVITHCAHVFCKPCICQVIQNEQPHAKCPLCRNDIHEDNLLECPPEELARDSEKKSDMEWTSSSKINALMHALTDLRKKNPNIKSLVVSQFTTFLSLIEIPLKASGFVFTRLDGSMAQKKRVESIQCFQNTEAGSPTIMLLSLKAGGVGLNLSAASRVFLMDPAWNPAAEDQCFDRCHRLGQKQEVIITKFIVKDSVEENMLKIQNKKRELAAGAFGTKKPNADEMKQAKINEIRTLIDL

ScRad5 [3] = biological target: T5, ScRad5 (Saccharomyces cerevisiae, UniProt P32849 1-1169); assay: pull-down; similar to 5'-biotin; FP: 20 mM Tris pH 7.5, 50 mM (dsDNA, KlHIRAN) or 70 mM (ssDNA) NaCl, 2 mM MgCl2, 1 nM DNA, room temp; EMSA: 20 mM Tris pH 7.5, 100 mM KCl, 0.5 mM DTT, 3% glycerol, 2 mM MgCl2, 250 ug/mL BSA, 4 C; pull-down: 20 mM Tris pH 7.5, 50 mM NaCl, 4 C; conditions: protein: recombinant; tags: N-terminal FLAG; label: 3'-biotin
T5 sequence: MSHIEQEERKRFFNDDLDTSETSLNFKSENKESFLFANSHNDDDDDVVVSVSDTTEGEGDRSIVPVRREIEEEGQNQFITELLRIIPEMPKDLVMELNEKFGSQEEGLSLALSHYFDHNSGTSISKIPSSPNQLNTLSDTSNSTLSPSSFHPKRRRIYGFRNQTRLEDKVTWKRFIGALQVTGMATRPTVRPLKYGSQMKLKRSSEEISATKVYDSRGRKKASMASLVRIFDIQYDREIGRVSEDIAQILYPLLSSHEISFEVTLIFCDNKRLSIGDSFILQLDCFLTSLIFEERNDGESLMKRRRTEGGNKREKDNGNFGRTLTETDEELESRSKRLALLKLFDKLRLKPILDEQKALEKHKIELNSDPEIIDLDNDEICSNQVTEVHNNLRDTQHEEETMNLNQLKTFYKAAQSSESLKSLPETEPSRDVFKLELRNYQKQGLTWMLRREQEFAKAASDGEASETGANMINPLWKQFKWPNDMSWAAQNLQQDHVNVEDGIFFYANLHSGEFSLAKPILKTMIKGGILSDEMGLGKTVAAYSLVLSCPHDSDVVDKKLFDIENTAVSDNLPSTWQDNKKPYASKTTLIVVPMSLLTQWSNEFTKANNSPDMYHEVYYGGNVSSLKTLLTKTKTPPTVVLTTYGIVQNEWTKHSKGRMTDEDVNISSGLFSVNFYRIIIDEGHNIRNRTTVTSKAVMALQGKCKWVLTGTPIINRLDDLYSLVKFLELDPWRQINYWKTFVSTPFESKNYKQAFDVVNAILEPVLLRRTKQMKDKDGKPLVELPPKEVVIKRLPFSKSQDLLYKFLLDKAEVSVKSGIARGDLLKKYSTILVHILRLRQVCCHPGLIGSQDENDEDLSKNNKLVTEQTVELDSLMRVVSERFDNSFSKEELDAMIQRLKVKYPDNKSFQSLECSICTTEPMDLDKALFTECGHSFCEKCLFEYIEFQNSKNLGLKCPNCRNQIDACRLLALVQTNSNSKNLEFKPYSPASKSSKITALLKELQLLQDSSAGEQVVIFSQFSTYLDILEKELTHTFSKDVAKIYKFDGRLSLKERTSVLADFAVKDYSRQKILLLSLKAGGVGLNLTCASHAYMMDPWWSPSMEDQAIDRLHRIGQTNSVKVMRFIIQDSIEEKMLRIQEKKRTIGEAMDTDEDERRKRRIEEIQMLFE

KlRad5 [4] = biological target: T3, KlRad5; assay: pull-down; suppressed by SSB; all salt concentrations tested; FP: 20 mM Tris pH 7.5, 50 mM (dsDNA, KlHIRAN) or 70 mM (ssDNA) NaCl, 2 mM MgCl2, 1 nM DNA, room temp; EMSA: 20 mM Tris pH 7.5, 100 mM KCl, 0.5 mM DTT, 3% glycerol, 2 mM MgCl2, 250 ug/mL BSA, 4 C; pull-down: 20 mM Tris pH 7.5, 50 mM NaCl, 4 C; conditions: protein: recombinant; tags: none; label: 5'-biotin
HLTF [5] = biological target: T4, HLTF; assay: pull-down; 100 mM salt; FP: 20 mM Tris pH 7.5, 50 mM (dsDNA, KlHIRAN) or 70 mM (ssDNA) NaCl, 2 mM MgCl2, 1 nM DNA, room temp; EMSA: 20 mM Tris pH 7.5, 100 mM KCl, 0.5 mM DTT, 3% glycerol, 2 mM MgCl2, 250 ug/mL BSA, 4 C; pull-down: 20 mM Tris pH 7.5, 50 mM NaCl, 4 C; conditions: protein: recombinant; tags: His (pET28a); label: 5'-biotin
ScRad5 [6] = biological target: T5, ScRad5; assay: pull-down; FP: 20 mM Tris pH 7.5, 50 mM (dsDNA, KlHIRAN) or 70 mM (ssDNA) NaCl, 2 mM MgCl2, 1 nM DNA, room temp; EMSA: 20 mM Tris pH 7.5, 100 mM KCl, 0.5 mM DTT, 3% glycerol, 2 mM MgCl2, 250 ug/mL BSA, 4 C; pull-down: 20 mM Tris pH 7.5, 50 mM NaCl, 4 C; conditions: protein: recombinant; tags: N-terminal FLAG; label: 5'-biotin

B1: dT10, 3'-FAM (ssDNA)
DNA: TTTTTTTTTT
B1: binds (KlHIRAN); binds (ScHIRAN).

B2: dT25, 3'-biotin (ssDNA)
DNA: TTTTTTTTTTTTTTTTTTTTTTTTT
B2: binds (KlRad5 [1]); binds (HLTF [2]); binds (ScRad5 [3]).

B3: dT25, 5'-biotin (ssDNA)
DNA: TTTTTTTTTTTTTTTTTTTTTTTTT
B3: binds (KlRad5 [4]); binds (HLTF [5]); binds (ScRad5 [6]).
